The record followed here is patent publication US7374920B2, “Ginkgo biloba levopimaradiene synthase” (priority 2001, dated 2008).

Series [1] can be described thus: in vitro enzymatic assay of levopimaradiene synthase constructs expressed in E. coli BL21(DE3). The class given is biochemical, Escherichia coli. The note with it: for diterpene product on bacterial expression: E. coli BL21(DE3), soluble lysate fraction, 20 μM GGDP, overnight at 32° C., GC and GC/MS. How it is done:
The desired plasmids were prepared by ligating the mutated gene insert into the similarly digested vectors pET32c(+) (Novagen; Madison, Wis.) and pRS426GAL (Hua, 2000), a multiple copy yeast expression vector. These plasmids was expressed in E. coli BL21(DE3) (Novagen; Madison, Wis.). E. coli cells were grown in Luria-Bertani medium supplemented with 100 μg/mL ampicillin at 37° C. with shaking to OD600 ˜0.6. The following parameters were tested: isopropyl 1-thio-β-D-galactopyranoside (IPTG) concentration (50, 100, 250, 500, and 1000 μM); and temperature and time (20° C. for 2, 3, 4, 6, 21 hours, 22° C. for 6, 8, 16, 19, 22, 45 hours, and 30° C. for 3, 6 hours). The following assay conditions were tested to obtain maximum diterpene product yield: 30 mM HEPES (N-2-hydroxyethylpiperazine-N′-[…]), pH 6.9, 7.2, 7.6, 8.0; 30 mM Tris (tris(hydroxymethyl)aminomethane hydrochloride), pH 7.4, 7.8, 8.2; 1, 5, 10% glycerol; 1, 3, 5, 10, 20 mM DTT (dithiothreitol); 20 mM β-mercaptoethanol; 2, 5, 8% Triton X-100; 5% Tween 80; 0, 2, 7.5, 20, 50 mM MgCl2; 0, 30, 500, 1000 μM MnCl2; 2, 10, 13.3, 20, 40, 80, 200 μM GGDP; and 23° C. and 32° C. assay temperatures.
Optimal soluble protein production and diterpene yield were obtained with the following conditions. Cell cultures were induced with 1 mM IPTG at 20° C. with shaking for 6 hours and lysed by sonication in 30 mM HEPES, pH 7.2, 5 mM DTT, and 5% glycerol. The soluble fraction of the lysate (100 mg/mL) was incubated with 20 μM GGDP in 30 mM HEPES, pH 7.2, 5 mM DTT, 5% glycerol, 2 mM MgCl2, and 500 μM MnCl2 overnight at 32° C.
(§1) All in vitro reactions were extracted 3× with hexane and dried over MgSO4. The reaction was further extracted twice with diethyl ether and dried over MgSO4. Thereafter, the crude lysate was suspended in 100 mM Tris, pH 8.0 containing 2.9 units/mg apyrase (a dephosphorylating agent) and 10 units/μL calf intestinal alkaline phosphatase, incubated at 30° C. for 3 hours, and extracted with diethyl ether as noted above (Croteau and Cane, 1985). The crude reaction mixtures were eluted over SiO2, concentrated, and analyzed by GC and GC/MS.
(§2) Gas chromatography spectra were obtained on a Hewlett Packard 6890 Series GC System equipped with an Rtx-5 capillary column (Restek, 30 m×0.25 mm i.d., 0.10 μm df). The following separation conditions and temperature program were employed: injector port 250° C., FID 250° C., split ratio 39:1, helium flow 20 cm/s (0.6 mL/min), 150° C. hold 5 min, increase to 250° C. (5° C./min), hold 5 min. GC/MS spectra were obtained on a Hewlett-Packard 5890A instrument with a 30-m DB-5 ms column (J&W Scientific Inc., 0.25 mm i.d., 0.10 μm df). The following separation conditions and temperature program were employed: injector port 280° C., transfer lines: 280° C., helium flow at 30 cm/s (1 mL/min) with splitless injection at 150° C. hold 3 min, increase to 250° C. (5° C./min), hold 5 min. Mass spectra (m/z 50 to 500) were obtained on a VG ZAB-HF reverse-geometry double-focusing instrument at 70 eV with an electron-impact ion source (200° C.). Accelerating voltage was set to 8 kV and the resolution was 1000 (10% valley).
The skilled artisan recognizes that lysis and assay conditions should be optimized. Examples of parameters that can be adjusted to optimize conditions include altering buffer, pH, reductant, reductant concentration, metal cofactors, cofactor concentrations, glycerol concentrations, substrate concentrations, and assay temperatures. […] Maximum soluble protein production and diterpene yield were obtained with the following conditions. Cell cultures were induced with 1 mM IPTG at 20° C. with shaking for 6 hours and lysed by sonication in 30 mM HEPES, pH 7.2, 5 mM DTT, and 5% glycerol. The soluble fraction of the lysate (100 mg/1 mL) was incubated with 20 μM GGDP in 30 mM HEPES, pH 7.2, 5 mM DTT, 5% glycerol, 2 mM MgCl2, and 500 μM MnCl2 overnight at 32° C. […]

Series [2] can be described thus: in vitro assay of levopimaradiene synthase constructs expressed in wild-type S. cerevisiae JBY575. The class given is biochemical, Saccharomyces cerevisiae. The note with it: wild-type S. cerevisiae JBY575, galactose 48 hours, lysate with GGDP. On the procedure:
Expression in S. cerevisiae JBY575, which represents wild-type yeast, was observed. JBY575 cells transformed with pRS426GAL inserted with the putative levopimaradiene synthase were grown in synthetic complete medium lacking uracil and supplemented with 2% glucose and 1.5% agar at 30° C. to saturation and induced with galactose for 48 hours. Cells were harvested, resuspended in lysis buffer, and mixed by vortexing over glass beads. The lysate was assayed with 60 μM GGDP in the presence and absence of 0.2% and 5% Triton X-100.
as §1, §2
The skilled artisan recognizes that lysis and assay conditions should be optimized. Examples of parameters that can be adjusted to optimize conditions include altering buffer, pH, reductant, reductant concentration, metal cofactors, cofactor concentrations, glycerol concentrations, substrate concentrations, and assay temperatures. […] Maximum soluble protein production and diterpene yield were obtained with the following conditions. Cell cultures were induced with 1 mM IPTG at 20° C. with shaking for 6 hours and lysed by sonication in 30 mM HEPES, pH 7.2, 5 mM DTT, and 5% glycerol. The soluble fraction of the lysate (100 mg/1 mL) was incubated with 20 μM GGDP in 30 mM HEPES, pH 7.2, 5 mM DTT, 5% glycerol, 2 mM MgCl2, and 500 μM MnCl2 overnight at 32° C. Yeast expression was induced with galactose at 30° C. for 48 hours and the cells were lysed and assayed according to the conditions noted.

Entries after “also recorded” stand apart in the source; their conditions may differ.

B1: Ser^61: Ginkgo biloba levopimaradiene synthase truncated at Ala^60-Ser^61; amino acid sequence SEQ.ID.NO:35 (protein, listed as Ginkgo biloba)
chain: MSAAETRPDQLPQEERFVSRLNADYHPAVWKDDFIDSLTSPNSHATSKSSVDETINKRIQTLVKEIQCMFQSMGDGETNPSAYDTAWVARIPSIDGSGAPQFPQTLQWILNNQLPDGSWGEECIFLAYDRVLNTLACLLTLKIWNKGDIQVQKGVEFVRKHMEEMKDEADNHRPSGFEVVFPAMLDEAKSLGLDLPYHLPFISQIHQKRQKKLQKIPLNVLHNHQTALLYSLEGLQDVVDWQEITNLQSRDGSFLSSPASTACVFMHTQNKRCLHFLNFVLSKFGDYVPCHYPLDLFERLWAVDTVERLGIDRYFKKEIKESLDYVYRYWDAERGVGWARCNPIPDVDDTAMGLRILRLHGYNVSSDVLENFRDEKGDFFCFAGQTQIGVTDNLNLYRCSQVCFPGEKIMEEAKTFTTNHLQNALAKNNAFDKWAVKKDLPGEVEYAIKYPWHRSMPRLEARSYIEQFGSNDVWLGKTVYKMLYVSNEKYLELAKLDFNMVQALHQKETQHIVSWWRESGFNDLTFTRQRPVEMYFSVAVSMFEPEFAACRIAYAKTSCLAVILDDLYDTHGSLDDLKLFSEAVRRWDISVLDSVRDNQLKVCFLGLYNTVNGFGKDGLKEQGRDVLGYLRKVWEGLLASYTKEAEWSAAKYVPTFNEYVENAKVSIALATVVLNSIFFTGELLPDYILQQVDLRSKFLHLVSLTGRLINDTKTYQAERNRGELVSSVQCYMRENPECTEEEALSHVYGIIDNALKELNWELANPASNAPLCVRRLLFNTARVMQLFYMYRDGFGISDKEMKDHVSRTLFDPVA
As to B1, in series [1], the “diterpene product on bacterial expression” value is “produced levopimaradiene as the exclusive diterpene hydrocarbon; also recorded: provided enzymatic activity capable of cyclizing geranylgeranyl diphosphate to levopimaradiene”. In series [1] (bacterial expression, highest expression levels), the “turnover of GGDP” value is listed as “approximately 1%”. For the same molecule, the “diterpene product on yeast expression” value in series [2] was “yielded levopimaradiene as the sole diterpene; also recorded: yielded levopimaradiene synthase activity”.

B2: Ala^2 (protein, listed as Ginkgo biloba)
chain: MAGVLFANLPCSLQLSPKVPFRQSTNILIPFHKRSSFGFNAQHCVRSHLRLRWNCVGIHASAAETRPDQLPQEERFVSRLNADYHPAVWKDDFIDSLTSPNSHATSKSSVDETINKRIQTLVKEIQCMFQSMGDGETNPSAYDTAWVARIPSIDGSGAPQFPQTLQWILNNQLPDGSWGEECIFLAYDRVLNTLACLLTLKIWNKGDIQVQKGVEFVRKHMEEMKDEADNHRPSGFEVVFPAMLDEAKSLGLDLPYHLPFISQIHQKRQKKLQKIPLNVLHNHQTALLYSLEGLQDVVDWQEITNLQSRDGSFLSSPASTACVFMHTQNKRCLHFLNFVLSKFGDYVPCHYPLDLFERLWAVDTVERLGIDRYFKKEIKESLDYVYRYWDAERGVGWARCNPIPDVDDTAMGLRILRLHGYNVSSDVLENFRDEKGDFFCFAGQTQIGVTDNLNLYRCSQVCFPGEKIMEEAKTFTTNHLQNALAKNNAFDKWAVKKDLPGEVEYAIKYPWHRSMPRLEARSYIEQFGSNDVWLGKTVYKMLYVSNEKYLELAKLDFNMVQALHQKETQHIVSWWRESGFNDLTFTRQRPVEMYFSVAVSMFEPEFAACRIAYAKTSCLAVILDDLYDTHGSLDDLKLFSEAVRRWDISVLDSVRDNQLKVCFLGLYNTVNGFGKDGLKEQGRDVLGYLRKVWEGLLASYTKEAEWSAAKYVPTFNEYVENAKVSIALATVVLNSIFFTGELLPDYILQQVDLRSKFLHLVSLTGRLINDTKTYQAERNRGELVSSVQCYMRENPECTEEEALSHVYGIIDNALKELNWELANPASNAPLCVRRLLFNTARVMQLFYMYRDGFGISDKEMKDHVSRTLFDPVA
Regarding B2, the “diterpene product on bacterial expression” value in series [1] is “produced levopimaradiene as the exclusive diterpene hydrocarbon”; in series [1] (listed as full-length cDNA), “provided enzymatic activity capable of cyclizing geranylgeranyl diphosphate to levopimaradiene”. Moreover, the “difference in activity between highest (Ser^61) and lowest (Ala^2) levels” value in series [1] (bacterial expression) was “approximately 80%”. Further, the “diterpene product on yeast expression” value in series [2] is given as “failed to produce observable levels of any diterpene product”; in series [2] (listed as full-length) it was “failed to produce detectable levels of biosynthetic product”.
